Measured values: article doi:10.1101/563890 (bioRxiv, 2019)

Biological target: CXCL12 (UniProt P48061-2 22-89)
Assay: MST

CXCL12, sequence (P48061 22-89): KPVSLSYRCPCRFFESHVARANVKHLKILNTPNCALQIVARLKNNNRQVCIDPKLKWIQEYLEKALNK

B1: 6His-tagged full-length HMGB1 (residues 1-214), labelled with NT647 (natural protein, UniProt P63159 1-215, looked up)
chain: MGKGDPKKPRGKMSSYAFFVQTCREEHKKKHPDASVNFSEFSKKCSERWKTMSAKEKGKFEDMAKADKARYEREMKTYIPPKGETKKKFKDPNAPKRPPSAFFLFCSEYRPKIKGEHPGLSIGDVAKKLGEMWNNTAADDKQPYEKKAAKLKEKYEKDIAAYRAKGKPDAAKKGVVKAEKSKKKKEEEDDEEDEEDEEEEEEEEDEDEEEDDDDE
modifications: non-covalently labelled with the NT647 fluorescence dye
Binder B1 has a Kd of 4 ± 0.4 µM.
